Laboratory results published in patent US20240376151A1, “STAPLED PEPTIDES AND METHODS THEREOF” (FOG PHARMACEUTICALS, INC., priority 2022, published 2024).

Experiments:
RNF31 UBA domain = biological target: T1, RNF31 UBA domain (Homo sapiens, UniProt Q96EP0); test: Phage Library Screening with NGS, RNF31 UBA domain; type: binding; details: for Phage library screen NGS readout, Target Concentration 10 / Phage library screen NGS readout, Target Concentration 30 / Phage library screen NGS readout, Target Concentration 100 / Phage library screen NGS readout, Target Concentration 300 / Phage library screen NGS readout, Target Concentration 1000: RNF31 UBA domain cluster C46; for Phage library screen NGS readout, BLANK: cluster C46; for phage screen NGS read-out at Target Concentration 10 / phage screen NGS read-out at Target Concentration 30 / phage screen NGS read-out at Target Concentration 100 / phage screen NGS read-out at Target Concentration 300: no competitor
T1 construct: RNF31 UBA domain protein (residues 480-639) with N-terminal Thioredoxin-TEV-6×his-yBBr-3C tags; Thioredoxin (N, cleaved yes); made in house; host or cells: E. coli BL21 (DE3) pLysS
T1 sequence (Q96EP0 480-639): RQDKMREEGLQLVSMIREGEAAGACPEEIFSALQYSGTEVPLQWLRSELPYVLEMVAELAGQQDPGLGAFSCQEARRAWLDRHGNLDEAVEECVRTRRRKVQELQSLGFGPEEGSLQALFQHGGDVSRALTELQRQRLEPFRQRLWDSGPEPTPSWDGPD

beta-catenin = biological target: T2, beta-catenin (Homo sapiens, UniProt P35222); test: Phage Library Screening with NGS, beta-catenin; type: binding; details: for Target Concentration 10 (phage screen NGS readout): beta-catenin target concentration 10; for Target Concentration 10 (phage screen NGS readout) / Target Concentration 30 (phage screen NGS readout) / Target Concentration 100 (phage screen NGS readout) / Target Concentration 300 (phage screen NGS readout): no competitor; for Target Concentration 30 (phage screen NGS readout): beta-catenin target concentration 30; for Target Concentration 100 (phage screen NGS readout): beta-catenin target concentration 100; for Target Concentration 300 (phage screen NGS readout): beta-catenin target concentration 300; for Target Concentration 1000 (phage screen NGS readout): beta-catenin target concentration 1000
T2 construct: made in house; host or cells: E. coli BL21 (DE3) pLysS
T2 sequence (P35222 134-665): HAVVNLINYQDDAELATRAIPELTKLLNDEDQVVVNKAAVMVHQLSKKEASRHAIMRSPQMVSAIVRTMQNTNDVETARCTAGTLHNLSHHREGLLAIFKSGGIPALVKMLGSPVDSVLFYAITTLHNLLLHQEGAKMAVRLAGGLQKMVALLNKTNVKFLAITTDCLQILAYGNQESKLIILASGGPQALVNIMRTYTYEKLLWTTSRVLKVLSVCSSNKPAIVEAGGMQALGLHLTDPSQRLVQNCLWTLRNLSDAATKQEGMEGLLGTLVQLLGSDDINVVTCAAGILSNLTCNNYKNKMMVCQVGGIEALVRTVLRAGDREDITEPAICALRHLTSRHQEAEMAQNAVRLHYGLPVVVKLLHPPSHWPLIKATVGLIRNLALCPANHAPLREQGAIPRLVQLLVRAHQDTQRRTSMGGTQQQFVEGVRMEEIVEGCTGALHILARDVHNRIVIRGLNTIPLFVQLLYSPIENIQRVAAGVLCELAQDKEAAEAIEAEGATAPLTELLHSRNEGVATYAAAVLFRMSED

[1] = target concentration 1000, first column
[2] = target concentration 1000, second column

Sequence	phage screen NGS read-out at Target Concentration 10 (RNF31 UBA domain)	phage screen NGS read-out at Target Concentration 30 (RNF31 UBA domain)	phage screen NGS read-out at Target Concentration 100 (RNF31 UBA domain)	Target Concentration BLANK (phage screen NGS readout) (beta-catenin; first column)	Target Concentration BLANK (phage screen NGS readout) (beta-catenin; fourth column)	Target Concentration BLANK (phage screen NGS readout) (beta-catenin; second column)	Target Concentration BLANK (phage screen NGS readout) (beta-catenin; third column)	Target Concentration 10 (phage screen NGS readout) (beta-catenin)	Target Concentration 30 (phage screen NGS readout) (beta-catenin)	Target Concentration 100 (phage screen NGS readout) (beta-catenin)	Target Concentration 300 (phage screen NGS readout) (beta-catenin)	Target Concentration 1000 (phage screen NGS readout) (beta-catenin; first 1000 column)	Target Concentration 1000 (phage screen NGS readout) (beta-catenin; second 1000 column)	also measured
DPAVQSCLSAAVYCAFR	–	–	–	–	–	–	–	–	–	–	–	–	–	Phage library screen NGS readout, Target Concentration 10 (RNF31 UBA domain): 2; Phage library screen NGS readout, Target Concentration 30 (RNF31 UBA domain): 9; Phage library screen NGS readout, Target Concentration 100 (RNF31 UBA domain): 68; Phage library screen NGS readout, Target Concentration 300 (RNF31 UBA domain): 106; Phage library screen NGS readout, Target Concentration 1000 (RNF31 UBA domain; [1]): 117; Phage library screen NGS readout, Target Concentration 1000 (RNF31 UBA domain; [2]): 118; Phage library screen NGS readout, BLANK (RNF31 UBA domain; column 1 of 5): 0; Phage library screen NGS readout, BLANK (RNF31 UBA domain; column 2 of 5): 1; Phage library screen NGS readout, BLANK (RNF31 UBA domain; column 3 of 5): 2; Phage library screen NGS readout, BLANK (RNF31 UBA domain; column 4 of 5): 0; Phage library screen NGS readout, BLANK (RNF31 UBA domain; column 5 of 5): 1
DPAAQACLSAAVFCAWY	–	–	–	–	–	–	–	–	–	–	–	–	–	Phage library screen NGS readout, Target Concentration 10 (RNF31 UBA domain): 5; Phage library screen NGS readout, Target Concentration 30 (RNF31 UBA domain): 19; Phage library screen NGS readout, Target Concentration 100 (RNF31 UBA domain): 45; Phage library screen NGS readout, Target Concentration 300 (RNF31 UBA domain): 86; Phage library screen NGS readout, Target Concentration 1000 (RNF31 UBA domain; [1]): 88; Phage library screen NGS readout, Target Concentration 1000 (RNF31 UBA domain; [2]): 97; Phage library screen NGS readout, BLANK (RNF31 UBA domain; column 1 of 5): 0; Phage library screen NGS readout, BLANK (RNF31 UBA domain; column 2 of 5): 0; Phage library screen NGS readout, BLANK (RNF31 UBA domain; column 3 of 5): 0; Phage library screen NGS readout, BLANK (RNF31 UBA domain; column 4 of 5): 0; Phage library screen NGS readout, BLANK (RNF31 UBA domain; column 5 of 5): 0
DPAFSRCVYAAFTCQTF	0	0	1	–	–	–	–	–	–	–	–	–	–	phage screen NGS read-out at Target Concentration 300 (RNF31 UBA domain): 10
DPAFSECVYAAIYCVHS	0	0	0	–	–	–	–	–	–	–	–	–	–	phage screen NGS read-out at Target Concentration 300 (RNF31 UBA domain): 7
DPAMIQCLSAAVYCVHY	1	3	8	–	–	–	–	–	–	–	–	–	–	–
DPAFSECVYAATMCLNH	2	0	1	–	–	–	–	–	–	–	–	–	–	phage screen NGS read-out at Target Concentration 300 (RNF31 UBA domain): 1
DPAYTYCQWAAEHCSLL	–	–	–	2	2	2	1	5	5	3	88	115	137	–
DPAEWYCEHAALVCTNH	–	–	–	2	1	0	0	0	12	47	156	148	155	–
DPATWHCDWAAEHCELL	–	–	–	0	0	0	0	2	10	81	147	203	280	–

The next lines start with results.

phage screen NGS read-out at Target Concentration 10 (RNF31 UBA domain)	phage screen NGS read-out at Target Concentration 30 (RNF31 UBA domain)	phage screen NGS read-out at Target Concentration 100 (RNF31 UBA domain)	Target Concentration BLANK (phage screen NGS readout) (beta-catenin; first column)	Target Concentration BLANK (phage screen NGS readout) (beta-catenin; fourth column)	Target Concentration BLANK (phage screen NGS readout) (beta-catenin; second column)	Target Concentration BLANK (phage screen NGS readout) (beta-catenin; third column)	Target Concentration 10 (phage screen NGS readout) (beta-catenin)	Target Concentration 30 (phage screen NGS readout) (beta-catenin)	Target Concentration 100 (phage screen NGS readout) (beta-catenin)	Target Concentration 300 (phage screen NGS readout) (beta-catenin)	Target Concentration 1000 (phage screen NGS readout) (beta-catenin; first 1000 column)	Target Concentration 1000 (phage screen NGS readout) (beta-catenin; second 1000 column)	Sequence	also measured
0	2	0	–	–	–	–	–	–	–	–	–	–	DPALSQCVYAAVFCQNL	phage screen NGS read-out at Target Concentration 300 (RNF31 UBA domain): 4
0	1	1	–	–	–	–	–	–	–	–	–	–	DPAHVHCQAAAQWCVLL	phage screen NGS read-out at Target Concentration 300 (RNF31 UBA domain): 6
–	–	–	0	0	0	0	2	0	10	7	18	16	DPAFESCFLAAHICYWE	–
–	–	–	0	0	0	1	0	7	14	57	37	59	DPAILNCHMAAWDCNFY	–
–	–	–	1	0	0	1	0	0	4	27	29	18	DPAIMACYQAAFWCQYN	–
–	–	–	0	0	1	0	0	0	0	0	3	3	DPAVIACYDAAFVCEYF	–
–	–	–	0	0	0	0	6	6	6	13	15	23	DPAMSQCNWAAVHCQLL	–
–	–	–	0	0	0	0	0	5	24	36	45	30	DPADNECILAAHICTLA	–
–	–	–	0	0	0	0	0	0	2	3	19	0	DPAIFNCTMAALECTQI	–
–	–	–	0	0	0	0	0	0	11	33	33	27	DPAEWICEHAALLCSVL	–
–	–	–	0	0	2	0	8	55	242	194	337	260	DPAEHDCMLAAHFCRHF	–
